[ ]: non-standard residue; d: D form. The star is where a group is joined. FITC = O=C1OC2(c3ccc(O)cc3Oc3cc(O)ccc32)c2ccc(NC(=S)*)cc21; Abu = CC[C@H](N)C(=O)O; Ahx = NCCCCCC(=O)O

The values below come from patent publication US8501426B2, “Method for identifying protease inhibitors” (priority 2006, dated 2013).

The target in one data set is T1, HCV NS3•4A (Hepatitis C virus genotype 1a, UniProt P27958).
T1 construct: hexa-histidine (N); made in house; host or cells: Sf9 insect cells (recombinant baculovirus, pVL1392-His-NS3•4A)
The experiment in a line: HCV NS3 peptide cleavage assay with full-length NS3•4A (determination of Km and Vmax). It is filed as biochemical, HCV sub-type strain 1a. The conditions noted are these: enzyme NS3•4A; peptide substrate varied 3 μM to 200 μM; 25 μM NS4A peptide; reverse phase HPLC. The procedure:
(§1) This assay follows the cleavage of a peptide substrate by full-length hepatitis C viral protein NS3•4A. One of three peptide substrates based on the NS5A/NS5B cleavage site for genotype 1a HCV, shown in table 3 below, is used to measure enzyme activity. All substrate stock solutions (25 mM) were prepared in DMSO containing 0.2 M DTT and stored at −20° C. A synthetic peptide cofactor (NS4A Peptide) was used to supplement NS4A. The hydrolysis reaction was performed in a 96-well microtiter plate format using 100 ηM to 125 ηM HCV NS3•4A in buffer containing 50 mM HEPES pH 7.8, 100 mM NaCl, 20% glycerol, 5 mM DTT and 25 μM NS4A peptide. The final DMSO concentration was no greater than 2% v/v. Reactions using NS5AB or NS5AB-EDANS as substrate were quenched by the addition of 10% trifluoroacetic acid (TFA) to yield a final TFA concentration of 2.5%. Reactions using FITC-NS5AB-1 as substrate were quenched by the addition of 0.4 M formic acid to yield a final concentration of 0.08 M acid.
(§2) Enzymatic activity was assessed by separation of substrate and products using reverse phase HPLC. The instrument used was an Agilent 1100 with a G1322A degasser, either a G1312A binary pump or a G1311A quaternary pump, a G1313A autosampler, a G1316A column thermostated chamber, a G1321A fluorescence detector and a G1315A diode array detector. The column thermostat was at 40° C. […] The C-terminal product peak (NH2-SMSY-COOH) was quantified using the absorbance data collected at 210 ηm. […] The C-terminal product peak (NH2-SMSYT-Asp(EDANS)-KKK-COOH) was quantified using the fluorescence data collected at 350 ηm excitation/490 ηm emission. […] The N-terminal product peak (FITC-Ahx-EDVV-(alpha)Abu-C-COOH) was quantified using the fluorescence data collected at 440 ηm excitation/520 ηm emission. Alternatively, the ratio of N-terminal product to unreacted FITC-NS5AB-1 substrate was determined using a Caliper LabChip 3000 with detection at 488 ηm excitation/530 ηm emission, using a chip buffer of 100 mM Tris pH 7.0, 10 mM EDTA, 0.01% (v/v) Brij-35, and 0.1% (v/v) CR-3. […]

The subject of data set [1] is CC[C@H](NC(=O)[C@@H](NC(=O)[C@@H](NC(=O)[C@H](CC(=O)O)NC(=O)[C@@H](N)CCC(=O)O)C(C)C)C(C)C)C(=O)N[C@@H](CS)C(=O)N[C@@H](CO)C(=O)N[C@@H](CCSC)C(=O)N[C@@H](CO)C(=O)N[C@@H](Cc1ccc(O)cc1)C(=O)O. The data set is described as follows: HCV NS3 protease domain peptide cleavage assay (determination of Km and Vmax). Format: biochemical. The note with it: other: enzyme NS3 Protease Domain; peptide substrate varied 3 μM to 200 μM; 25 μM KK4A cofactor; reverse phase HPLC; pH 7.8; 40.0 °C. The procedure: This assay is a modification of that described by Landro, et al. (Landro J A, Raybuck S A, Luong Y C, O'Malley E T, Harbeson S L, Morgenstern K A, Rao G and Livingston D L. Biochemistry 1997, 36, 9340-9348), and uses a peptide substrate (NS5AB), based on the NS5A/NS5B cleavage site for genotype 1a HCV. The substrate stock solution (25 mM) was prepared in DMSO containing 0.2 M DTT and stored at −20° C. A synthetic peptide cofactor (KK4A) was used as a substitute for the central core region of NS4A. The reaction was performed in a 96-well microtiter plate format using 25 ηM to 50 ηM HCV NS3 protease domain in buffer containing 50 mM HEPES pH 7.8, 100 mM NaCl, 20% glycerol, 5 mM DTT and 25 μM KK4A. The final DMSO concentration was no greater than 2% v/v. […]
The SMSY product was separated from substrate and KK4A using a microbore separation method. […] The SMSY product peak was quantified using the data collected at […].
To determine the kinetic parameters Km and Vmax, the HCV NS3 protease domain or HCV NS3•4A was reacted with peptide substrate under the assay conditions described above. […] The ratio of the product peak area (as determined by reverse phase HPLC) to the reaction time yielded a rate of enzyme catalyzed hydrolysis. […] The value of kcat was determined from Vmax using the nominal protease concentration and a fully cleaved substrate peptide as an instrument calibration standard.

Data set [2] has the same test system. The data set is described as follows: HCV NS3 peptide cleavage assay with full-length NS3•4A (determination of Km and Vmax). Format: biochemical, HCV sub-type strain 1a. The conditions noted are these: other: enzyme NS3•4A; peptide substrate varied 3 μM to 200 μM; 25 μM NS4A peptide; reverse phase HPLC; 40.0 °C. Here is the method: as §1, §2

Consider “FITC-Ahx-EDVV-(alpha)Abu-CSMSYTKK-NH2 ({FITC}-[Ahx]EDVV[Abu]CSMSYTKK-NH2) [FITC-NS5AB-1, FITC-labelled peptide substrate based on the NS5A/NS5B cleavage site for genotype 1a HCV]”, for which, in the data set with HCV NS3•4A, the Michaelis constant (Km) – broadly, the substrate concentration at which the rate is half of its maximum – was 15 µM.
For the substance “HCV NS3 protease domain (Hepatitis C virus (isolate Con1))”, in data set [1], the Michaelis-Menten constant (Km) amounted to 25 µM and the catalytic efficiency (kcat/Km) (in general, the second-order rate constant that governs catalysis at low substrate concentration) was found to be 30000 M⁻¹ s⁻¹.
Consider “HCV NS3•4A (Hepatitis C virus (isolate H77))”, for which, in data set [2], the Km turned out to be 30 µM and the kcat/Km worked out at 7900 M⁻¹ s⁻¹.
